For 1 substance, pKa results are on record in publication PMC5377774.

The target in this data set is His827 (UniProt position 827, GQFLDHDLDST). Kind of data set: kinetics (stopped-flow UV-vis spectroscopy). As to conditions: 25 °C (stated for the stopped-flow reactions in general; not restated for the pH profile); Citrate phosphate buffer pH 4-5.5; phosphate buffer pH 5.5-8; carbonate buffer pH 9 and 10. A concentration of 100 mM is given for the analogous bromide pH profile in the Fig. 7D caption.; Ferric high-spin resting enzyme reacting with H2O2 to form compound I; heme covalently linked.

Consider “Peroxidasin 1, truncated construct hsPxd01-con4 (four Ig domains + peroxidase domain) (Homo sapiens)”, for which the pKa entry is reported as “∼4.7”.
